Test results: the DeepSol protein solubility set

assay: soluble on expression in E. coli; label from the status in PepcDB or PDB records

Row | Sequence | soluble on expression in E. coli
1 | MSLNSIKDVDLSEITAGKKYWNVERPVEEEVMYFLLIDRFHDGKERISIPSTTGFGNTDQLQARCGGTIQGVIKNLKYISALGFTSIWINPFLQNNPETYHGYSIENFLEVDAQWGTKEDIVELVAQAHKLHIKVFFDIVLNHTGNNWSYVKENPRYNKGKQYAVKAWRYPDRPIPAELRNLNLYGRKGGIVKWEETPETWDGDIFELKDLIQDDSEIGHATLEILIAVYSYWFAVTDCDGFRIDAAKHIPPKWLNTFVDAMKALTASVHKTSFFIFAEIISNQSYISKYHTIDGYLDFDFHFSFVPNMYGEKKRKSAIQSQPRPVDKVPIRFLDNHDQVGQMPKHRIAYRMKEKALCNLLRAFLCMPGIPCIYYGTEQGLKGKGILDGSIRECLFNPDGKEDILNLDSPYARVIKEGIHLRKKLNLYTGDFQSCEIMAAKSHRCIALQVNGLASSKLIVYNLGPHNEVVSIKLSSPLTRTNKLVVYLYSNGDADNDDKTVVNDILHNITMHPYGFKVLELLNHQESVNEGHHHHHH | soluble
2 | MRYFPLFLDLTNKPVLVVGGGEVACRKIDALLRADAKVTVISPQVAPALQAWIEQGKCHWIQHFYSSHWLDKRYVQVWATTDNPELNHQVYKDAKEQGILVNVVDDQPYCDFITPSMIERGRIQLAISSGGASPVLIRNIRETLEAVLAQNLALLADFGASKRNSIKDFLPSVDLRRQFWERFFAHPEVKNAQDRESLERIYIHLLTQSTDKVSATTWIEFGADVELLSLKALRYMQQAELVLHTQDCPFVFVDLCRRDAQRQSFNSSVELSTLLLQAQQETQNVCVLIPSGSSEYALLQGKATVLKMAQQG | not soluble
3 | MPGHRITLTGEKQTLLITLYAKALDSRLDDSILHDRFAEEAVRQIDFDFSRVALGKGNERALAMRSHYFDQACREFLGRHPEGQVLNLGCGLDSRIYRVDPPAELPWFDLDYPEVMDLRERLYPPRAGAYRALRHSVDDDGWLQGVPRERPALVLAEGLMPYLRESQVRRLVERLVDHLGSGELLFDGYGRLGIMLLRLYPPLRETGAQVHWSIDDPRELERWHPALRFIEEVTDYDPQDVAKLPQSSRLMLPIYNGFAFLRRMGRLIRYRWPRV | not soluble
4 | MGSDKIHHHHHHMADGAEFKVYTQRFIMEKIAYYLGQYHSLEENNAFWGEGFTEWHNVAKARPLFPSHRQPVLPGKLGFYDLRNNDTIEEQVALADSFGVTAFCHWHYWFGGKRVLYRPFDSMLKIQNSPVKVMLGWANESWTGIWHGLSDQVIFEQPYNKIELNEHAKLLADYFRHENYLKVNGKAAFLIYKPRKIPESKSYLQLLRQKVYENCGLDMYIIGTWGPGRLEVIHSADELGLDALVANNVGATFKSELSRKLYNGFWTAAKSLGLGPELRNYASTVKTLEYAHQNISGTVHSTIVTGWDNSPRSNRRALVLTNFNENSFKYAIDIAISNEKNNENKLLFIKSWNEWAEGNTLEPRFKEDWSLGKVLKKQIIKHDV | not soluble
5 | MSLSHTANPCCSHPCQNRGVCMSVGFDQYKCDCTRTGFYGENCSTPEFLTRIKLFLKPTPNTVHYILTHFKGFWNVVNNIPFLRNAIMSYVLTSRSHLIDSPPTYNADYGYKSWEAFSNLSYYTRALPPVPDDCPTPLGVKGKKQLPDSNEIVEKLLLRRKFIPDPQGSNMMFAFFAQHFTHQFFKTDHKRGPAFTNGLGHGVDLNHIYGETLARQRKLRLFKDGKMKYQIIDGEMYPPTVKDTQAEMIYPPQVPEHLRFAVGQEVFGLVPGLMMYATIWLREHNRVCDVLKQEHPEWGDEQLFQTSRLILIGETIKIVIEDYVQHLSGYHFKLKFDPELLFNKQFQYQNRIAAEFNTLYHWHPLLPDTFQIHDQKYNYQQFIYNNSILLEHGITQFVESFTRQIAGRVAGGRNVPPAVQKVSQASIDQSRQMKYQSFNEYRKRFMLKPYESFEELTGEKEMSAELEALYGDIDAVELYPALLVEKPRPDAIFGETMVEVGAPFSLKGLMGNVICSPAYWKPSTFGGEVGFQIINTASIQSLICNNVKGCPFTSFSVPDPELIKTVTINASSSRSGLDDINPTVLLKERSTELEGHHHHHH | not soluble
6 | GPGSMRVNDSITVQQLADEYCITSVVECDATGSVQPRAVALDSPLDVLHGGKYYIARRDVKHFAREPRVTFRGKVTVREFNATHGVIGREGETNANRGQAVAADPVGVAPSRKRPEREEDLFDSGTRTEIYAKEYEFVPFVGDLYNDGRNGMIHLKDVKKLCESVDLDEVEFRARHVQAEKILTHAKQLLLSYADGNGGRTSPEY | not soluble
7 | MTARDDETIAFYSGHATAYTSRGQAPDRPHLETFLARLRAGAKILELGCGGGQDSEYMLSAGFDVHPTDGTPDIAKAAQARLGIPVRTLLFENIEDAALYDAVWANACLLHVPRLALPGIIGRIHTALKPGGVFYASFKAGEVEGRDTFGRYYNYPSKAWLEETYGQFAWTEVEIEARQGSGYDKLPTDWLHVTATKA | soluble
8 | MLLMMVVGLTAGVLAGCANPKDTTEEFLTAIQKGDIEKARTFVESDKEFNKLNEKTDDAEAKAMLSAITKNFKFEKLEEVSKKDDKAEVKVKITSADLSVAVTKAVGEVMPMAFASAFSEDKEQSEKAIEKTMTSTIIKNLTDKDAAMATREVTLNLKKDKDGDYKIVADDNLKEVLFANAKSLEKMFGGK | not soluble
9 | MNTQNYTYSTTGYQPSQPSGGQQSYNETRQYSSNATSNYPSQTQQYQQQQHQYQSDHSNAQRLLNSGYNTNQVDYVLGHKDKYNEGPHYQPPIINSSATAANNSSSSTHHYNSSSQAIPLGGPNQGHSSSSYTTETRVTGGGTGAPVSNNYSNQNYSSSAYNSQSSQHQTKSIPVQNYQISFPPLSVSTPAFGTSFFENSQKSFQESSEKFHRDLASPLSRTIPVQSAGHFSEVSKYFNSEEEENYQVSQPAIPLPSADQVYEVSSNYNKSYSSQTTTQHQPQPVAANNNYSTSYHTERSSTTTAQQPQTIALPPPQNNSSHTETHSSTGPIMMHSPGGHSMKSTEFSSSRHHKQETTTTTTTTPQPPVFQTTTYPTTKTTSYNYSSSTIPSQPAKPSFNQESYTTHTERNNSSQGFPQQRLQPSGGYSYENYSSSRKEENRREETSRPVSQLSQYSESRNYKRNYEEKTETTTVPSLAPATNVTYKDLSNAQCVDDVFNKKTEMNESLPVGSVFNTHNNTEGGYRDANGHDVSYKRETQTSADPGRETALLKEEEKRVVETPLEPGVISRHVTTKYYKKKTVTDTTTTTA | not soluble
10 | YPNVEVFGEVPIQVVNAEPLGMHSNVMEAMFTAITRAKKNVYIETPYFIPTECLLQAIQTASMSGIDVRLVMPKRSDNDFVQYASNSYVEKLLRNKVRVYQYVNGFTHSKLMIVDDELVVVGSANMDIRSLELLFETNLFIYDKKVAQTVRDIYHTDMNNSKELNLRDWLQR | not soluble
11 | MDSGDFSPMQSNFSLGFMSFEDIPEDARTTEMIDKIVFEEDKEYDHTQDSFRYGRVTTGVSYNLVTGKIPKTVFEQVKAKDDENDNVEFEMEHLEDKETAHKTQTFDELYESQMPKYFDYQSNFSDVNGIWTLLFDQNHYEKMSTFELQAAICAALNSKHFMMICVGIDAFNAVTGVEMSAKDRVVFRMALTRAVAGEFQPPLVKVAPKQLTGVSPMKRDISEVTSSIDVLFVPVIGVTDEVENNRFLIVVRVKGT | not soluble
12 | TNAKASKRVYITFTGYDKKPSIDNLKKLDMSITSNPSKCTHLIAPRILRTSKFLCSIPYGPCVVTMDWINSCLKTHEIVDEEPYLLNDPEKELELGCTLESALKRARAQGPSLLEDYVVYLTSKTVAPENVPAVISIVKSNGGVCSTLNVYNKRLARHLEDGNVVLITCNEDSHIWTNFLDNASQNKTIFLQNYDWLIKTVLRQEIDVNDRIADEFARAV | soluble
13 | PVTSISHEQLQQVHAEAGLTIALSTSVGDDLFYVDHVSSEPEYAYLAENRLRRSLLRTSAGWLLLADREQRDIWAYLNSRPVADADYIEQFLYALEALRATGVCAAPGVAVEHGDGVSVALRERGRTIATLGVVGVRETIIERRDELAKICLRHAEEWGFR | soluble
14 | MSLSTLQAELASAKTEYEAKELEIRNLFSEKNTQERRLQTLVAQVAAKRKELSNALSQSSAETLTSELQSLESQYQACQTLINNISNYLTVKAGLDKKNASELVERAQKNLLNFIYNSIKSELKVLTDEQVELMKDFVVIEKLIRSELSDSVRQSYFLGCVFDELYGQLKGSDFTSHKEKMLKKYDAESSIG | soluble
15 | DGTADKTKGEVSNDKVSTDEKHVVSLDPNDQSKGKGVVIDNVANGDISATSTDAINGSQLYAVAKGVTNLAGQVNNLEGKVNKVGKRADAGTASALAASQLPQATMPGKSMVAIAGSSYQGQNGLAIGVSRISDNGKVIIRLSGTTNSQGKTGVAAGVGYQW | soluble
16 | MAELVPFAVPIESDKTLLVWELSSGPTAEALHHSLFTAFSQFGLLYSVRVFPNAAVAHPGFYAVIKFYSARAAHRAQKACDRKQLFQKSPVKVRLGTRHKAVQHQALALNSSKCQELANYYFGFNGCSKRIIKLQELSDLEERENEDSMVPLPKQSLKFFCALEVVLPSCDCRSPGIGLVEEPMDKVEEGPLSFLMKRKTAQKLAIQKALSDAFQKLLIVVLESGKIAVEYRPSEDIVGVRCEEELHGLIQVPCSPWKQYGQEEEGYLSDFSLEEEEFRLPELD | soluble
17 | GMHFSKEHINALETRTRAHFINSLSGFKSANLIGTQDRQGNTNLSIVSSVIHLGANPPLMGMIIRPHSVPRHTFENIMQTGLYTINHVNQSIYEQAHQTSARYDKDESEFEATGLTPEYLSDFCAPFVKESRLKYSVKLVEHQHLAINGTEFVIGEIVDVYVDDNAVQTDGFIDLQAIDTVAISGLDCYYTGDKLARLPYAKK | soluble
18 | MGSDKIHHHHHHMDMQQLKPSREHDAPLYLQLYRRYRDAIIARKLHPGDRVPSVRSLASELNLARGTVEMAYQMLASEGYFLTRGPAGTIVSPQLEKLTESGYSTTSLSQIPSRPQIETAQVQPFQLGLPALDAFPRKTWARLAGHNLRTLDTAAMISPDPAGYEPLRRAIATYLGISRGITCTHEQVFITAGYRGALELVCRTLLQPGDIGWFEDPGYIFARQFLARAGMHLEPVPVDEEGLNVDIGQQRAAEARFAVVTPTHQSPMGMALSLPRRLQLLEWASHHRSWIIEDDYDSEFRYHGRPLPALKSLDRDGRVLYTGTFSKVLFPGLRLAYLVVPEPQIERFRDTANHFCCAGSILPQATVANFMEQGHFARHLRRMRSLYAIRRGYLVDELLQALGSHLTVQPQAGGIHVLATLTARGNDQSLAAAAQSHGLAIQALNDWRTSKTSRGGLLMGFTNVTEPAMAKALVHRLAAAIGLS | not soluble
19 | MYKAVVFDFDGTVIDTEKHLFDLINTHLKIHQVAPISLEFYKQFIGGEATELHTYLEDAIGFKNKEKIYDQYYQTSVELPVNSTIIQLMQYLKKRHIPMAITTSSYKKNIYPIFKQLGLDTYIDVVVGRENVDSVQPNPEIYLKAVQELNYNPTTCLAIEDSVNGATAAMLAGLDVVVNTNIITKDQDFSTVQCVGQDMEFEDIKNSLFKE | not soluble
20 | SLTRLEALKNIPRPAEECVEKTLNGEVPVDLFIARGHPNVRASNKRTLEVTKDVYLTRRGDCIIACCAEKAAGELSATVLEALMRSGLVVLIIDAGVVWDYVIGITPRSKPASKWRLVARKSNYVDDSTIAILADKAAYDLDRTLIRELKRGVPVRIIVGVCPGDSI | not soluble
